Laboratory results reported in article PMC2854692.

Target: Glucagon receptor (UniProt P47871)
Chain of UniProt P47871 (P47871 26-477): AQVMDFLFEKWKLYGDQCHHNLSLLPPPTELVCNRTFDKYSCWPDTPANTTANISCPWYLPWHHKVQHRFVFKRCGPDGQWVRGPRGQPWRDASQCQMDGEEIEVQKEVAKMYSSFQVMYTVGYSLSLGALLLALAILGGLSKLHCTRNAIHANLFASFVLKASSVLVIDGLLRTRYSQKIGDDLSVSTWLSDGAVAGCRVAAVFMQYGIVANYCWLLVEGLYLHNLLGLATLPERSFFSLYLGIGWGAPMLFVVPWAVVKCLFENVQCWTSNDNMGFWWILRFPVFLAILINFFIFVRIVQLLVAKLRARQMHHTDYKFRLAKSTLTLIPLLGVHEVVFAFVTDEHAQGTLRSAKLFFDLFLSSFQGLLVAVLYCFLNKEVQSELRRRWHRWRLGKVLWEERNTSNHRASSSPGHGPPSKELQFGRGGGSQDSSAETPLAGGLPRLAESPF

B1: Gcg-XTEN (ligand)
chain: HSQGTFTSDYSKYLDSRRAQDFVQWLMNTGGTSTPESGSASPGTSPSGESSTAPGTSPSGESSTAPGSTSSTAESPGPGSTSESPSGTAPGSTSSTAESPGPGTSPSGESSTAPGTSTPESGSASPGSTSSTAESPGPGTSPSGESSTAPGTSPSGESSTAPGTSPSGESSTAPG
Question: With B1 as the binder, how does the potency in the Ca2+-flux assay (FLIPR) on a transfected GcgR cell line, relative to unmodified glucagon, molar basis (% of the potency of unmodified glucagon) read?
Answer: 15
